Experimental data as given in US12180473B2, “Chimeric RNA-driven genomic rearrangement in mammalian cells” (priority 2018, dated 2024).
“Also recorded” adds a separate entry of the source.

B1: Antisense-D3: input RNA, SEQ ID NO: 23 (nucleic acid)
antisense: TGTGCTCGCTTCGGCAGCACATATACTAACATTGGAACGATCCTGCAGTGAAGGGATAAGTGTCCAGAATCCCTGGATCTGGGATGGAATAAAGGATCTGGATGGTAAACGGAGAGTGCTGGGAGCGCTCGACCCTCGGGCGCACTCACCTGCCGCGCCGCGCTCCTCACACCCG
B2: Sense-C1: input RNA, SEQ ID NO: 32 (nucleic acid)
sense: TGTGCTCGCTTCGGCAGCACATATACTAACATTGGAACGATCCTGCAGGGTCCCCAAAGCTGGCTCCTAGTCCGCCTGCCCTCCACGGCCCCCGCCTGGGGTTAGTGCATGAAGAGTGTTACCAGGACGGGGTCTACCCAGTGCTCATCTATGTCATAGGAAGAGCATGAGCTCA
B3: Antisense-D2: input RNA, SEQ ID NO: 22 (nucleic acid)
antisense: TGTGCTCGCTTCGGCAGCACATATACTAACATTGGAACGATCCTGCAGGAGAGACAGAGAGAGAGAGGCTGGTAGAGGGAAGAGACAGAAGAAAGATGAAGGGATAAGTGTCCAGAATCCCTGCCCAGCACTCTCCCAGCACCCCGGGAGGCGCCCTGCCCGGCTGGCCCCAGCG
B4: Antisense-5A: input RNA, SEQ ID NO: 13 (nucleic acid)
antisense: TGTGCTCGCTTCGGCAGCACATATACTAACATTGGAACGATCCTGCAGGCCGCTCACCTGCCGCGCTCCAGGCGGCGCTCCCCGCCCCTCGCCCTCCGCCAGACAGGAGTGAGAGATGGAAGCTCGCGCCTACTC
B5: Antisense-F1: input RNA, SEQ ID NO: 25 (nucleic acid)
antisense: TGTGCTCGCTTCGGCAGCACATATACTAACATTGGAACGATCCTGCAGAATGGATGAATACATAAAATAAATTGTGGTGGATATATACAACGGAATATCATTTAGCCTTTATTATTATTGAGAACTGTGCCGAGCCGGGCAGGACAGGATGAGGTGGACCGAAGCGCCCAGGTGC
B6: Antisense-C3: input RNA, SEQ ID NO: 20 (nucleic acid)
antisense: TGTGCTCGCTTCGGCAGCACATATACTAACATTGGAACGATCCTGCAGGTCCTGGTAACACTATTCATGCACTAACAAGTTGGTTGCCAGTGAGACTTGATTATTATGACTCTGGGAGTGCTGCCCAGGCGGGGGCCGTGGAGGGCAGGCGGACTAGGAGCCAGCTTTGGGGACC
B7: Antisense-B2: input RNA, SEQ ID NO: 16 (nucleic acid)
antisense: TGTGCTCGCTTCGGCAGCACATATACTAACATTGGAACGATCCTGCAGTGGCCTGAGCCTTGAAGAATGGGGTGTACTGGGTAAATCAAAATGGTGGGGAGCATTTCCAGATGGAGAAACTGCCCCTCCCCAGCCCGGACCCCGAGCCGGGACCCTGGTACCGGCGCCGCTCACC
B8: Antisense-B1: input RNA, SEQ ID NO: 15 (nucleic acid)
antisense: TGTGCTCGCTTCGGCAGCACATATACTAACATTGGAACGATCCTGCAGTGGCCTGAGCCTTGAAGAATGGGGTGTACTGGGTAAATCAAAATGGTGGGGAGCATTTCCAGATGGAGAAACTGCCTCACCTGCCGCGCTCCAGGCGGCGCTCCCCGCCCCTCGCCCTCCGCCTCCG
B9: Sense-D1: input RNA, SEQ ID NO: 33 (nucleic acid)
sense: TGTGCTCGCTTCGGCAGCACATATACTAACATTGGAACGATCCTGCAGCGGGTGTGAGGAGCGCGGCGCGGCAGGTGAGTGCGCCCGAGGGTCGAGCGCTCAGGGATTCTGGACACTTATCCCTTCATCTTTCTTCTGTCTCTTCCCTCTACCAGCCTCTCTCTCTCTGTCTCTC
B10: Antisense-E1: input RNA, SEQ ID NO: 24 (nucleic acid)
antisense: TGTGCTCGCTTCGGCAGCACATATACTAACATTGGAACGATCCTGCAGAGGGTATTCAGTATTACTATTTGGCTTAGATAAGCTGGTAGTTACTTGCTAAAATTAATCTTTATTATAAAGCAGAAAGCCGCATTCTGACATCACTCTCCATGGACAAAGATTCTTCGCTTGATCA
B11: Antisense-7: input RNA, SEQ ID NO: 10 (nucleic acid)
antisense: TGTGCTCGCTTCGGCAGCACATATACTAACATTGGAACGATCCTGCAGCTTGAGCCATTCACCTGGCTAGGGTTACATTCCATATTGATGGTGACCCTGGCTGGGGGTTGAGACAGCCAATCCCGGACCCCGAGCCGGGACCCTGGTACCGGCGCCGCTCACCTGCCGCGCTCCAAGACAGGAGTGAGAGATGGAAGCTCGCGCCTACTC
B12: Antisense-D1: input RNA, SEQ ID NO: 21 (nucleic acid)
antisense: TGTGCTCGCTTCGGCAGCACATATACTAACATTGGAACGATCCTGCAGGAGAGACAGAGAGAGAGAGGCTGGTAGAGGGAAGAGACAGAAGAAAGATGAAGGGATAAGTGTCCAGAATCCCTGAGCGCTCGACCCTCGGGCGCACTCACCTGCCGCGCCGCGCTCCTCACACCCG
B13: Antisense-G1: input RNA, SEQ ID NO: 26 (nucleic acid)
antisense: TGTGCTCGCTTCGGCAGCACATATACTAACATTGGAACGATCCTGCAGTTTATTCATGAGAAAATTCTGGCACAATGGAAAACCCTGGCAAGCAAAAGATAGGGGCAGCAGATGTCCTGGCCTACAAAGAACTCCAAGCCCATCGTCCCTAGAAAGCATGGTCTCCCATGACCCC
B14: Antisense-1: input RNA, SEQ ID NO: 4 (nucleic acid)
antisense: TCAGATCGCCTGGAGACGCCATCCACGCTGTTTTGACCTCCATAGAAGACACCGGGACCGATCCAGCCTCCCCTCGAAGCTGATCCTGAGAACTTCAGGCTCCTGGGCAACGTGCTGGTCTGTGTGCTGGCCCATCACTTTGGCAAAGAATTCCTTGAGCCATTCACCTGGCTAGGGTTACATTCCATTTTGATGGTGACCCTGGCTGGGGGTTGAGACAGCCAATCCTGCTGAGGGACGCGTGGGCTCATCTTGGAAGTCTGTCCATAGTCGCTGGAGGAGGACGCGGTCATCTCTGTCTTAGCCAGGTGTGGCGTTCCGTAGGCACACTCAAACAACGACTGGTCCTCACTCACAACTGATAAGGCTTCCTGCCGCGCTCCAGGCGGCGCTCCCCGCCCCTCGCCCTCCGCCTCCGCCTCCGCCTCCTGCTTAGCTCGCGCCTACTCAAGCTTATCGATACCGTCGACCTCGAGGGCCCAGATCTAATTCACCCCACCAGTGCAGGCTGCCTATCAGAAAGTGGTGGCTGGTGTGGCTAATGCCCTGGCCCACAAGTATCACTAAGCTCGCTTTCTTGCTGTCCAATTTCTATTAAAGGTTCCTTTGTTCCCTAAGTCCAACTACTAAACTGGGGGATATTATGAAGGGCCTTCCGGAGCATCTGGATTCTGCCTAATAAAAAACATTTATTTTCATTGCAAAAAAA
B15: Antisense-5B: input RNA, SEQ ID NO: 14 (nucleic acid)
antisense: TGTGCTCGCTTCGGCAGCACATATACTAACATTGGAACGATCCTGCAGCTTGAGCCATTCACCTGGCTAGGGTTACATTCCATATTGATGGTGACCCTGGCTGGGGGTTGAGACAGCCAATCC
modifications: input RNA, chemistry not given here
B16: Antisense-3: input RNA, SEQ ID NO: 6 (nucleic acid)
antisense: TGTGCTCGCTTCGGCAGCACATATACTAACATTGGAACGATCCTGCAGCTTGAGCCATTCACCTGGCTAGGGTTACATTCCATATTGATGGTGACCCTGGCTGGGGGTTGAGACAGCCAATCCCGGACCCCGAGCCGGGACCCTGGTACCGGCGCCGCTCACCTGCCGCGCTCCAGGCGGCGCTCCCCGCCCCTCGCCCTCCGCCAGACAGGAGTGAGAGATGGAAGCTCGCGCCTACTC
B17: Antisense-C1: input RNA, SEQ ID NO: 18 (nucleic acid)
antisense: TGTGCTCGCTTCGGCAGCACATATACTAACATTGGAACGATCCTGCAGTGAGCTCATGCTATTCCTATGACATAGATGAGCACTGGGTAGACCCCGTCCTGGTAACACTATTCATGCACTAACCCCAGGCGGGGGCCGTGGAGGGCAGGCGGACTAGGAGCCAGCTTTGGGGACC
B18: Sense-B1: input RNA, SEQ ID NO: 31 (nucleic acid)
sense: TGTGCTCGCTTCGGCAGCACATATACTAACATTGGAACGATCCTGCAGCGGAGGCGGAGGGCGAGGGGCGGGGAGCGCCGCCTGGAGCGCGGCAGGTGAGGCAGTTTCTCCATCTGGAAATGCTCCCCACCATATTGATTTACCCAGTACACCCCATTCTTCAAGGCTCAGGCCA

Each molecule was assayed on TMPRSS2-ERG fusion (assay: RT-PCR detection of induced endogenous TMPRSS2-ERG fusion transcript in LNCaP cells expressing input RNA). Details: LNCaP cells transfected with input RNA plasmid, DHT for 3 days.
Procedure: LNCaP cells were cultured in this special medium for 24 hrs prior to plasmid transfection.
Transfection was performed using Turbofect transfection reagent (Thermo Scientific, #R0531) according to manufacturer's protocol. Briefly, 1 μg of a particular plasmid was first diluted in 100 μl of the serum-free DMEM followed by immediate mixing by pipetting. 4 μl of the transfection reagent was then added to the diluted DNA followed by mixing and incubation for 20 min. The DNA/transfection reagent mixture was then added drop wise to a well containing LNCaP cells in 1 ml medium.
For treating cultured cells, concentrated DHT stock was diluted as 10× working solutions (for example, for 0.9 μM final concentration, 10× is prepared as 9.0 μM) with the appropriate complete culture medium and used immediately. […] Six hrs post transfection, 111 μl of fresh 10× DHT working solutions was added to each well of 12-wells plate containing 1 ml medium and transfected cells.
Briefly, cells were suspended in 200 μl of PBS buffer and were then lysed with 400 μl of lysis buffer. The sample was then passed through the filter assembly resulting in the binding of the nucleic acids to the filter. The filter containing nucleic acids was then incubated with DNase I dissolved in DNase incubation buffer to degrade genomic and plasmid DNAs. The column was then rinsed with wash buffer and total RNA then eluted in a new tube for further analysis.
After the addition of dNTPs, the mixture was denatured at 65° C. for 5 minutes. This was followed by the addition of a master-mix containing 1× superscript buffer, 10 mM DTT, 5 mM Magnesium chloride, RNaseOUT and Superscript III reverse transcriptase. Reactions were carried out at 50° C. for 50 minutes and then terminated by incubation at 85° C. for 5 minutes. cDNA was then treated with RNase-H for 20 minutes at 37° C. to degrade RNA in DNA/RNA hybrid. 1 μl of cDNA was used as template for each subsequent PCR reaction.
The Denaturation, Annealing and Extension steps were performed 32 cycles for induced fusion RNA and 27 cycles for input RNA.

Molecule	induction of endogenous TMPRSS2-ERG fusion transcript (RT-PCR)
B1	complete loss of induction
B2	failed to induce fusion transcripts
B3	complete loss of induction
B4	loss of induction
B5	failed to induce fusion transcripts
B6	complete loss of induction
B7	complete loss of induction
B8	clearly induced fusion transcripts
B9	failed to induce fusion transcripts
B10	failed to induce fusion transcripts
B11	loss of induction; also recorded: did not
B12	clearly induced fusion transcripts
B13	failed to induce fusion transcripts
B14	induced a clear band of 721 bp
B15	loss of induction
B16	unable to induce fusion
B17	clearly induced fusion transcripts
B18	failed to induce fusion transcripts

Same assay, conditions: LNCaP cells transfected with input RNA plasmid, DHT for 3 days; listed as antisense-3

Molecule	induction of endogenous TMPRSS2-ERG fusion transcript (RT-PCR)
B16	inability of antisense-3 to induce; also recorded: did not

Same assay, conditions: fusion gene partners TMPRSS2-ERG, LNCaP

Molecule	Cell line(s) identified
B8	LNCaP
B12	LNCaP
B14	LNCaP
B17	LNCaP
